“And” between values parts separate entries of the source, which are not always exact repeats. Equal values may be shown once. No end group written: not given here.
Biological target: Recombinant Gn (residues 21–452) of the SFTSV membrane glycoprotein polyprotein (severe fever with thrombocytopenia syndrome virus)
Test: ELISA

## KKRGFGS (not fully specified) [Biotinylated HKU-P1]
  binding affinity: 700 µg/mL
  signal over background at 250 µg/mL (fold): 2 fold and 3 fold

Reference: PMC8539749 (Viruses, 2021)
